In patent US10072299B2, “Antibodies against epidermal growth factor receptor (EGFR) and uses thereof” (Merrimack Pharmaceuticals, Inc., priority 2011, dated 2018):
One block for each molecule: values may come before it.

Experiments:
[1] = conversion of irinotecan by nonspecific carboxylesterases; cited from earlier work
[2] = tested on: phospho-EGFR; test: phospho-EGFR ELISA in A431 cells; assay type: cell-based, human; details: EGF stimulated
[3] = biological target: mouse EGFR (Mus musculus, UniProt Q01279); test: Cross reactivity with mouse EGFR; assay type: binding
[4] = tested on: phospho-ERK; test: phospho-ERK ELISA in A431 cells; assay type: cell-based, human
Method: Cells are serum starved in 1% FBS medium with antibiotics and 2 mM L-glutamine for about 20 hours at 37° C. and 5% carbon dioxide. Cells are then preincubated with varying concentrations of anti-EGFR antibodies for 2 hrs, and then stimulated with human EGF ligand (50 ng/ml) (PeproTech, cat # AF-100-15) for 10 minutes at 37° C. and 5%/carbon dioxide. […] Lysates are either analyzed immediately by ELISA for ERK (a downstream effector of EGFR) and EGFR phosphorylation, or frozen at −80° C. until use.
The phospho-ERK ELISA is performed similarly to the phospho-EGFR ELISA with the following changes: Human pERK ELISA Duoset kit is purchased from R&D Systems (cat# DYC1018-5) and used as recommended by the manufacturer.
A431 cells were treated with a dilution series of antibody and phospho-ERK inhibition measured by ELISA.
Experiments were performed with rhEGF (PeproTech) dosed at a concentration of 50 ng/mL or 500 ng/mL.

Molecule: CCc1c2c(nc3ccc(O)cc13)-c1cc3c(c(=O)n1C2)COC(=O)[C@]3(O)CC [SN-38, 7-Ethyl-10-hydroxy-camptothecin]
activity of metabolite relative to irinotecan [1]: 100-1000 fold

B1: P3X: affinity matured anti-EGFR monoclonal antibody (Bin3) of parental ch; VH SEQ ID NO: 23, VL SEQ ID NO: 24 (antibody, V domains shown)
VH: MGFGLSWLFLVAILKGVQCQVQLVQSGAEVKKPGASVKVSCKASGYAFTSYGINWVRQAPGQGLEWMGWISAYNGNTYYAQKLRGRVTMTTDTSTSTAYMELRSLRSDDTAVYYCARDLGGYGSGSVPFDPWGQGTLVTVSS
VL: MGTPAQLLFLLLLWLPDTTGEIVMTQSPATLSVSPGERATLSCRASQSVSSNLAWYQQKPGQAPRLLIYGASTRATGIPARFSGSGSGTEFTLTISSLQSEDFAVYYCQDYRTWPRRVFGGGTKVEIK
phospho-EGFR inhibition, single antibody (in words) [2]: partial phospho-EGFR inhibition

cross reaction with (binding to) mouse EGFR [3]: cross reacts with (binds to) mouse EGFR
B2: P1X: affinity matured anti-EGFR monoclonal antibody (Bin1) of parental ca; VH SEQ ID NO: 19, VL SEQ ID NO: 20 (antibody, V domains shown)
VH: MGFGLSWLFLVAILKGVQCQVQLVQSGAEVKKPGSSVKVSCKASGGTFSSYAISWVRQAPGQGLEWMGSIIPIFGTVNYAQKFQGRVTITADESTSTAYMELSSLRSEDTAVYYCARDPSVNLYWYFDLWGRGTLVTVSS
VL: MGTPAQLLFLLLLWLPDTTGDIQMTQSPSTLSASVGDRVTITCRASQSISSWWAWYQQKPGKAPKLLIYDASSLESGVPSRFSGSGSGTEFTLTISSLQPDDFATYYCQQYHAHPTTFGGGTKVEIK
phospho-ERK inhibition with 80 nM EGF (in words) ([4]; 80 nM of EGF ligand): partial
phospho-ERK inhibition (in words) ([4]; EGF 50 ng/ml, dilution series): dose-dependent inhibition of phospho-ERK activity
